The source of these data is the supplement of paper PMC10567573.

The series is described as follows: protein stability index of a GFP-peptide fusion (GPS, HEK-293T) (PSI 1-6); higher = more stable.
[1] abbreviates: treatment: DMSO, c terminus: a fixed tail appended.
The mark [2] stands for this setting: treatment: MLN4924 1 uM, 8 h, c terminus: a fixed tail appended.

± gives the standard deviation.
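Further: 24-mer peptide tiles fused after GFP, lentivirally expressed, FACS-sorted into six equal bins by GFP/DsRed ratio, decoded by Illumina sequencing, PSI is the read-weighted mean bin number.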

Take EKLATDTSTFEATSEGTLELQQRN [ZNF232]: the protein stability index turned out to be 5.29 ± 0.22 under setting [1] and 5.41 ± 0.14 under setting [2].

As to EKNLLLQNQVDELERKFRCQQEQL [LRRC45], the protein stability index by setting is: under setting [1], 4.27 ± 0.31; under setting [2], 4.34 ± 0.23.

On to EKVKKRPGGRPEVIYNYVQRPFIR [BTBD10], for which the protein stability index reads like this: under setting [1], 2.9 ± 0.31; under setting [2], 2.73 ± 0.63.

As to ELDNPMQQKWTKPARAGSEVEWTE [C2CD2L], the protein stability index by setting is: under setting [1], 4.1 ± 0.36; under setting [2], 4.25 ± 0.21.

For the sequence ELDRWLYHLEKQTALLGGPRRCHS [PLEKHN1], the protein stability index under setting [1] turned out to be 2.24 ± 0.19 and the protein stability index under setting [2] worked out at 2.17 ± 0.39.

In the case of ELERQRRLLGSVQQDLERSLQDAS [PBXIP1], the protein stability index runs as follows: under setting [1], 4.62 ± 0.26; under setting [2], 4.46 ± 0.28.

ELLDLKAGGFSIRNQKGEQVFRLA [MYORG]: the protein stability index under setting [1] is 2.32 ± 0.33 and the protein stability index under setting [2] was found to be 2.24 ± 0.48.

ELLGVHPGASTEEVKRAFFSKSKE [DNAJC4] gave a protein stability index under setting [1] of 3.8 ± 0.19 and a protein stability index under setting [2] of 4.08 ± 0.42.

ELPNGSVKEAPAPTPTSLEVSSPP [PDZK1] showed a protein stability index under setting [1] of 5.04 ± 0.12 and a protein stability index under setting [2] of 5.09 ± 0.17.

Consider ELPPSLRAPPPGGWPLQPRVQWG [ZMAT5], for which the protein stability index is, setting by setting: (treatment: DMSO, c terminus: native) 2.75 ± 0.33; (treatment: MLN4924 1 uM, 8 h, c terminus: native) 2.82 ± 0.099.

Turning to ELTSVTAWMLCKLLDKAGVPPGVV [ALDH8A1], the protein stability index is, setting by setting: under setting [1], 2.98 ± 0.42; under setting [2], 2.69 ± 0.52.

Regarding ENLDEAREQKEKSPPDQPAVPHPP [ADD1], the protein stability index is, setting by setting: under setting [1], 5.61 ± 0.15; under setting [2], 5.66 ± 0.28.

For the sequence EPAARISPLGALQHGFFRRTADEA [DYRK1B], the protein stability index worked out at 4.08 ± 0.13 under setting [1] and 3.89 ± 0.22 under setting [2].

With EPGAGLGIGDMAFEGDMGAAGGDG [PSD2], the protein stability index turned out to be 5.72 ± 0.23 under setting [1] and 5.61 ± 0.41 under setting [2].

With EPIILPCSHNLCQACARNILVQTP [TRIM9], the protein stability index came out at 2.45 ± 0.18 under setting [1] and 2.68 ± 0.23 under setting [2].

As for EPLRILSKYHRFISFTLYLIGFCM [CDS2], the protein stability index by setting is: under setting [1], 1.95 ± 0.32; under setting [2], 1.96 ± 0.16.

For the sequence EPSNKTIHAELSKLVKKHAAQRST [FKBP8], the protein stability index under setting [1] is 4.49 ± 0.21 and the protein stability index under setting [2] came to 4.47 ± 0.3.

Take EPSWECKFDHIEVRDGPFGFSPII [NETO1]: the protein stability index was determined as 2.36 ± 0.36 under setting [1] and 2.3 ± 0.22 under setting [2].

Regarding EPVAAEPKQSGSFRYLQGMLEAGE [PDLIM4], the protein stability index by setting is: under setting [1], 4.6 ± 0.11; under setting [2], 4.6 ± 0.11.

In the case of EQDMERRKADFKAGKALVISGREV [ZC3H15], the protein stability index runs as follows: under setting [1], 4.8 ± 0.3; under setting [2], 4.89 ± 0.18.

Take EQGKPVIPAAVLAGFTGSGPIQLW [ETS2]: the protein stability index is, setting by setting: under setting [1], 2.55 ± 0.43; under setting [2], 2.54 ± 0.16.

For ERLQLEYVDVVFANRPDPNTPMEE [KCNAB2], the protein stability index was 4.7 ± 0.23 under setting [1] and 4.75 ± 0.33 under setting [2].

As for ERRRRFNINDRIKELGTLIPKSSD [TFE3], the protein stability index reads like this: under setting [1], 4.04 ± 0.099; under setting [2], 4.09 ± 0.2.

For the sequence ESAAFSQGSRSGVSGGSRSLNMSR [PHTF1], the protein stability index is 4.44 ± 0.17 under setting [1] and 4.5 ± 0.23 under setting [2].

As for ESFILDQDDLENPMLETASKLLLS [ANKRD17], the protein stability index was 3.99 ± 0.22 under setting [1] and 4.1 ± 0.38 under setting [2].

On to ESKGCFANTTPSGKSVSSSSSVET [SPATS1], for which the protein stability index runs as follows: under setting [1], 5.18 ± 0.14; under setting [2], 5.19 ± 0.12.

Consider ESLEPDAQVLMLGQILELPWKEET [FANCE], for which the protein stability index came out at 4.17 ± 0.11 under setting [1] and 4.17 ± 0.33 under setting [2].

As for ETNRLGRLINHSKCGNCQTKLHDI [KMT5A], the protein stability index is, setting by setting: under setting [1], 2.57 ± 0.36; under setting [2], 2.75 ± 0.23.

Consider EVGKSFERHKLKRQDADAWTLYKI [SMG5], for which the protein stability index was 2.78 ± 0.4 under setting [1] and 2.9 ± 0.32 under setting [2].

On to EVLLGTPYDLAIDMWSLGCILVEM [DYRK1B], for which the protein stability index runs as follows: under setting [1], 2.79 ± 0.37; under setting [2], 2.96 ± 0.51.

As to EWDAMGGKVQDIKAREKDGKGRTA [FSD1], the protein stability index is, setting by setting: under setting [1], 5.16 ± 0.21; under setting [2], 5.35 ± 0.14.

With EYDTVTREVKVLLDQLRFPNGVQL [APMAP], the protein stability index under setting [1] worked out at 2.01 ± 0.42 and the protein stability index under setting [2] is 2.22 ± 0.39.

As for FALLADKAAQQGKQEENDVVEKLN [SNX8], the protein stability index by setting is: under setting [1], 5.38 ± 0.13; under setting [2], 5.33 ± 0.15.

In the case of FASGFKRAFKIKDFANTIPGHGGI [CDS1], the protein stability index came to 2.65 ± 0.43 under setting [1] and 2.47 ± 0.66 under setting [2].

In turn, FATFCGGLAANGALQRLDLRNNQI [LRRC45] returned a protein stability index under setting [1] of 2.36 ± 0.19 and a protein stability index under setting [2] of 2.37 ± 0.23.

Take FEAEPLPENTNRQLLLQFERLVVL [PI4K2A]: the protein stability index under setting [1] amounted to 2.12 ± 0.1 and the protein stability index under setting [2] is 2.14 ± 0.26.

As to FEKHRWPPVWYLKEEDHYQRARKE [RHOBTB2], the protein stability index reads like this: under setting [1], 3.26 ± 0.3; under setting [2], 3.52 ± 0.5.

Take FFVANKYWRYDEYKRSMDPGYPKM [MMP1]: the protein stability index reads like this: under setting [1], 2.15 ± 0.33; under setting [2], 2.16 ± 0.33.

In the case of FGAVTNVKVIRDFTTNKCKGFGFV [ELAVL3], the protein stability index reads like this: under setting [1], 2.42 ± 0.21; under setting [2], 2.19 ± 0.38.

Sequence FGIGSEILKNLSQVAMRCRCSSMH [SAT1] displayed a protein stability index under setting [1] of 2.56 ± 0.58 and a protein stability index under setting [2] of 2.45 ± 0.48.

FGPGQTLLSSVHVLDLEARGYIKP [ALKBH7] yielded a protein stability index under setting [1] of 2.43 ± 0.24 and a protein stability index under setting [2] of 2.67 ± 0.3.

In the case of FHLAPARAGHHPNQYATCRLCGRQ [ZBED2], the protein stability index is, setting by setting: under setting [1], 2.58 ± 0.41; under setting [2], 3.14 ± 0.68.

For the sequence FIGLEVVAQLFNCMVGLLLIALLT [ATL3], the protein stability index reads like this: under setting [1], 3.08 ± 0.3; under setting [2], 3.39 ± 0.28.

On to FIPAKTGKDVATQILEGELFDFDL [RSPH3], for which the protein stability index amounted to 2.7 ± 0.48 under setting [1] and 2.89 ± 0.56 under setting [2].

On to FLHVRKATRAMGLLNTLSLAFVGG [TMEM175], for which the protein stability index by setting is: under setting [1], 2.16 ± 0.59; under setting [2], 1.98 ± 0.35.

Regarding FLLSQQTDLPECEQSSARQKASLL [TCF25], the protein stability index is 3.78 ± 0.52 under setting [1] and 3.83 ± 0.12 under setting [2].

For the sequence FLRGPSGPRFGPRNDKIKHVQNQV [VAMP4], the protein stability index is, setting by setting: under setting [1], 2.93 ± 0.27; under setting [2], 3.39 ± 0.31.

With FLRQLRASHLGNELEGTEELCCVA [C2CD2L], the protein stability index under setting [1] was found to be 2.98 ± 0.1 and the protein stability index under setting [2] is 3.19 ± 0.3.

Consider FLSDVTAAVKENQMTPTNLAVCLA [DLC1], for which the protein stability index amounted to 2.72 ± 0.23 under setting [1] and 2.92 ± 0.29 under setting [2].

For FLWGPRALIETSYVKVLHHMVKIS [MAGEA6], the protein stability index is 2.14 ± 0.89 under setting [1] and 2.59 ± 0.65 under setting [2].

As to FMYNLVQFLGFSWIFVNLTVRFCI [HACD3], the protein stability index is 3.58 ± 1.3 under setting [1] and 2.82 ± 0.15 under setting [2].

As to FPFSLLGLLALAIGLWGLAVKGSL [TSPAN10], the protein stability index turned out to be 3.33 ± 0.37 under setting [1] and 3.14 ± 0.27 under setting [2].

Take FRVLCTAPAKYTVFDAEGYVKPQS [MOSPD3]: the protein stability index stood at 2.02 ± 0.35 under setting [1] and 2.19 ± 0.53 under setting [2].

As for FSVVRRCMKIPTGQEYAAKIINTK [CAMK2D], the protein stability index reads like this: under setting [1], 2.3 ± 0.1; under setting [2], 2.31 ± 0.36.

As for FTAKHANKVKVLDAPVPDCLGVHC [FSD1], the protein stability index came to 2.75 ± 0.26 under setting [1] and 3.04 ± 0.31 under setting [2].

Turning to FTGELAESRQTEVVIRDIDERAME [KLHL20], the protein stability index reads like this: under setting [1], 4.69 ± 0.21; under setting [2], 4.89 ± 0.33.

In the case of FTQNQIEVLENVFRVNCYPGIDIR [HESX1], the protein stability index worked out at 2.42 ± 0.4 under setting [1] and 2.14 ± 0.68 under setting [2].

Take FYLPSSPNLSLASEDEEEYESGYA [SMG5]: the protein stability index under setting [1] was 4.55 ± 0.067 and the protein stability index under setting [2] came to 4.59 ± 0.21.

FYSAEIICAIEYLHSKEIVYRDLK [PRKX] had a protein stability index under setting [1] of 2.96 ± 0.76 and a protein stability index under setting [2] of 2.51 ± 0.45.

For GAAESPYGHPAGIDYKTTTILLDG [RAB40B], the protein stability index runs as follows: under setting [1], 4 ± 0.067; under setting [2], 3.96 ± 0.25.

As for GAERKAALCELLEKETQIIASIGR [IQUB], the protein stability index by setting is: under setting [1], 3.21 ± 0.61; under setting [2], 3.2 ± 0.2.

On to GANINAFDKKDRRALHWAAYMGHL [ANKRD44], for which the protein stability index worked out at 2.3 ± 0.21 under setting [1] and 2.36 ± 0.31 under setting [2].

Take GCILQWKKIYCRICMAQIAYSGNT [ZBED1]: the protein stability index runs as follows: under setting [1], 2.23 ± 0.81; under setting [2], 2.28 ± 0.76.

On to GEAGWGAGEGRLGHKRKQPLPKRV [FOXJ1], for which the protein stability index amounted to 4.5 ± 0.16 under setting [1] and 4.59 ± 0.26 under setting [2].

For GEEEAESSISSTSNEQLKVTQEPR [ZMYND11], the protein stability index came to 5.59 ± 0.11 under setting [1] and 5.46 ± 0.28 under setting [2].

On to GEGRKSRKFSRLSCLRRRRHPPKV [SMG5], for which the protein stability index reads like this: under setting [1], 3.69 ± 0.37; under setting [2], 3.82 ± 0.28.

On to GFFDFETFDVDEYEHYERVENGDF [CDC14A], for which the protein stability index stood at 4.14 ± 0.51 under setting [1] and 4.49 ± 0.52 under setting [2].

Consider GFTKEQQRLGIPKDPRQWTETHVR [ETS1], for which the protein stability index is, setting by setting: under setting [1], 3.25 ± 0.58; under setting [2], 3.27 ± 0.25.

Regarding GFTTATEFHQRRSEIIQITTGSKE [RAD51], the protein stability index runs as follows: under setting [1], 4.22 ± 0.44; under setting [2], 4.35 ± 0.47.

For GGAEMRTQHWPIRLDGQQEPQPFV [MYORG], the protein stability index runs as follows: under setting [1], 3.86 ± 0.27; under setting [2], 3.85 ± 0.13.

Sequence GGDAGHAPFPPPPAADGARAPRSP [C6orf223] had a protein stability index under setting [1] of 5.39 ± 0.28 and a protein stability index under setting [2] of 5.5 ± 0.27.

In the case of GGEEEDEDENIEVVYSKAASVPKV [EIF5], the protein stability index under setting [1] stood at 5.18 ± 0.14 and the protein stability index under setting [2] was determined as 4.93 ± 0.47.
